Data on one variant can be found in publication PMC7110113, “Termination of non‐coding transcription in yeast relies on both an RNA Pol II CTD interaction domain and a CTD‐mimicking region in Sen1” (The EMBO Journal, 2020).

B1: Nrd1 CID [S. cerevisiae] / Sen1 NIM peptide, FAM-labelled [modified: 5,6-carboxyfluorescein (FAM) on the N-terminus; 5,6-carboxyfluorescein (FAM) on the N-terminus] [S. cerevisiae] (parent complex)
chain 1: MQQDDDFQNFVATLESFKDLKSGISGSRIKKLTTYALDHIDIESKIISLIIDYSRLCPDSHKLGSLYIIDSIGRAYLDETRSNSNSSSNKPGTCAHAINTLGEVIQELLSDAIAKSNQDHKEKIRMLLDIWDRSGLFQKSYLNAIRSKCFAMD
chain 2: DDDEDDYTPSIS

The test covers variants of B1. Nature of the test: fluorescence anisotropy (FA); parent: 1.2e+03 nM. (In general: In fluorescence polarisation assays a small probe gives low polarisation when free and higher when bound to something large.)
By Kd is commonly meant the equilibrium constant for the complex coming apart. In the case of chain 1 I130A, the Kd worked out at 7.38 µM.
